Test [1] addresses T1, Biotinylated PD-1-huIgG1 Fc (Kactus Biosystems) (UniProt Q15116 25-167, limits assumed, biotinylated (site not given)).
T1 construct: the whole entry is named
Kind of test: neutralisation ELISA: PD-L1-huIgG1 Fc coated, antibody titrated against biotinylated PD-1-huIgG1 Fc. A general note: ELISA stands for enzyme-linked immunosorbent assay.

Test [2] deals with T2, PD-1 Protein, Human, Recombinant (His Tag) (Beijing Yiqiao Shenzhou / Sino Biological) (human, UniProt Q15116 25-167).
T2 construct: Bought reagent; the whole entry is named
T2 sequence (Q15116 25-167 limits assumed): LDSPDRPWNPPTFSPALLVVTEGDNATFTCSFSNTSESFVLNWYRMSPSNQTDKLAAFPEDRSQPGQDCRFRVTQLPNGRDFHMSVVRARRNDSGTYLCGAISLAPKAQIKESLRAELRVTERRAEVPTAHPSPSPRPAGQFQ
Briefly: binding ELISA: human PD-1 His tag protein coated at 0.5 ug/ml, antibody in two-fold dilutions from 10 ug/ml.

T1 sequence (Q15116 25-167 limits assumed): as above

B1: 6H6 hIgG1 form antibody (antibody, V domains shown)
VH: EVKLVESGGGLVKPGGSLKLSCAASGFTFSSYGMSWVRQTPEKRLEWVATISGGGRYTYYPDSVKGRFTISRDNAKNNLYLQMSSLRSEDTALYYCASIYDGYYFDYWGHGTTLTVSS
VL: DIVITQSPATLSVTPGDSVSLSCRASQSISNNLHWYQKKSHESPRLLIKYASQSISGIPSRFSGSGSGTDFTLSINSVETEDFGMYFCQQSNSWPLTFGAGTKLELK
notes: also called 6H6 antibody; 6H6 huIgG1 antibody
In test [1], B1 showed a 50% inhibitory concentration (IC50) of 3.6 µg/mL. In test [2], the EC50 amounted to 0.0172 µg/mL.

As usually defined, the IC50 is the concentration needed to halve the response being measured. Read a low IC50 as higher potency. Usually EC50 stands for the concentration giving half of the maximal effect.

For the origin of these results see patent WO2022068891A1 (dated 2022).
